The record followed here is PMC6555848 (2019).

Assay [1] addresses T1, His-tagged ABL1 kinase (UniProt P00519 1-1130). The assay is described as follows: SPR; two-state model, kd1. In general terms: SPR reads the build-up and loss of mass on a sensor chip optically.
The target in assay [2] is T1, His-tagged ABL1 kinase. The assay is described as follows: SPR; two-state model.

By koff is commonly meant the first-order rate constant of dissociation. Higher therefore signals a short-lived complex. In general, Kd refers to the concentration at which binding is half-saturated. Higher therefore signals lower affinity.

T1 sequence (P00519 whole entry): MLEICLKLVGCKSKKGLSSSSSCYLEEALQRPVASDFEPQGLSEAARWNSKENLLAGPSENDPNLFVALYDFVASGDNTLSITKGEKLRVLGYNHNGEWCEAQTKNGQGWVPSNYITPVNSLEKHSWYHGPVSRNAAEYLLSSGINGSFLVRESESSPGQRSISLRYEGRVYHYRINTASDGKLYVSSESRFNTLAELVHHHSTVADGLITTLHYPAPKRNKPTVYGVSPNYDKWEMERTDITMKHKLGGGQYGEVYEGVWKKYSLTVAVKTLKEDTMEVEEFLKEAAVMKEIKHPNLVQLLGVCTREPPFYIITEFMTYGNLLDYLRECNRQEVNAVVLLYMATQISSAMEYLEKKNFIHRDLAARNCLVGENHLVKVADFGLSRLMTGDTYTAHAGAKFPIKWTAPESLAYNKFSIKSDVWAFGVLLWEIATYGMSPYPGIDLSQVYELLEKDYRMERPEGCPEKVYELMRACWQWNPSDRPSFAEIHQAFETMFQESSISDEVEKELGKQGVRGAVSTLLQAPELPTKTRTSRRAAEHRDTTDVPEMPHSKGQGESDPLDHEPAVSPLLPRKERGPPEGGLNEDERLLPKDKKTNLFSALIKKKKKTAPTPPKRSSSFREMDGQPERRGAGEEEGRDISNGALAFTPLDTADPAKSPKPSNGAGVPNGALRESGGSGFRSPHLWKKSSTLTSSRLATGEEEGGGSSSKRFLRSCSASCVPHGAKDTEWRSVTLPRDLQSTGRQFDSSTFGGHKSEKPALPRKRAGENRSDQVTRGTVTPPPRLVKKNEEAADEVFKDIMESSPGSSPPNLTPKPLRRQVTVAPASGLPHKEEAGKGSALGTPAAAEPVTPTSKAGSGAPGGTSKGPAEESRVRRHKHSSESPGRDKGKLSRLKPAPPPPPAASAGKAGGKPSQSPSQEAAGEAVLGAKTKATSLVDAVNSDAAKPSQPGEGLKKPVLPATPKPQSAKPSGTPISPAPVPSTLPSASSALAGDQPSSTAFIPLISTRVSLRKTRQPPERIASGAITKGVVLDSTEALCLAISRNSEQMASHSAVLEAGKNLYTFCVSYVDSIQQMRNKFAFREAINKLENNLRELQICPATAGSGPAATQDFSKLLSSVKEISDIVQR

B1: full-length human STAT5B (M1-S787) (natural protein)
chain: MAVWIQAQQLQGEALHQMQALYGQHFPIEVRHYLSQWIESQAWDSVDLDNPQENIKATQLLEGLVQELQKKAEHQVGEDGFLLKIKLGHYATQLQNTYDRCPMELVRCIRHILYNEQRLVREANNGSSPAGSLADAMSQKHLQINQTFEELRLVTQDTENELKKLQQTQEYFIIQYQESLRIQAQFGPLAQLSPQERLSRETALQQKQVSLEAWLQREAQTLQQYRVELAEKHQKTLQLLRKQQTIILDDELIQWKRRQQLAGNGGPPEGSLDVLQSWCEKLAEIIWQNRQQIRRAEHLCQQLPIPGPVEEMLAEVNATITDIISALVTSTFIIEKQPPQVLKTQTKFAATVRLLVGGKLNVHMNPPQVKATIISEQQAKSLLKNENTRNDYSGEILNNCCVMEYHQATGTLSAHFRNMSLKRIKRSDRRGAESVTEEKFTILFESQFSVGGNELVFQVKTLSLPVVVIVHGSQDNNATATVLWDNAFAEPGRVPFAVPDKVLWPQLCEALNMKFKAEVQSNRGLTKENLVFLAQKLFNNSSSHLEDYSGLSVSWSQFNRENLPGRNYTFWQWFDGVMEVLKKHLKPHWNDGAILGFVNKQQAHDLLINKPDGTFLLRFSDSEIGGITIAWKFDSQERMFWNLMPFTTRDFSIRSLADRLGDLNYLIYVFPDRPKDEVYSKYYTPVPCESATAKAVDGYVKPQIKQVVPEFVNASADAGGGSATYMDQAPSPAVCPQAHYNMYPQNPDSVLDTDGDFDLEDTMDVARRVEELLGRPMDSQWIPHAQS
On to B1, for which, in assay [1], the off-rate (koff) was determined as 93.9 s⁻¹. In assay [2], this molecule gave a Kd of 280 nM.
